From paper PMC3306407, “A Single-Stranded DNA Aptamer That Selectively Binds to Staphylococcus aureus Enterotoxin B” come the findings set out here.

In data set [1] the target is staphylococcal enterotoxin C1 (SEC1) (Staphylococcus aureus, UniProt P01553 28-266).
The target of data set [2] is staphylococcal enterotoxin C2 (SEC2) (Staphylococcus aureus, UniProt P34071 28-266).
Data set [3] has as its target staphylococcal enterotoxin C3 (SEC3) (Staphylococcus aureus, UniProt P0A0L5 28-266).
The target in data set [4] is staphylococcal enterotoxin B (SEB) (Staphylococcus aureus, UniProt P01552 28-266).

B1: APTSEB1 (ssDNA)
DNA: GGTATTGAGGGTCGCATCCACTGGTCGTTGTTGTCTGTTGTCTGTTATGTTGTTTCGTGATGGCTCTAACTCTCCTCT
Consider B1, for which the binding result was “no binding” in data set [1], “no binding” in data set [2], “no binding” in data set [3] and “binds” in data set [4].
